{"source": "patent US10712339B2", "about": "“Engineering of a novel breast tumor microenvironment on a microfluidic chip” (Arizona Board of Regents on behalf of Arizona State …, priority 2014, dated 2020)", "molecules": {"B1": {"name": "EGF: epidermal growth factor injected to the side channels to stimulate chemoinvasion (protein, UniProt P01133 23-1207, looked up)", "Pro-epidermal growth factor": "PQHWSCPEGTLAGNGNSTCVGPAPFLIFSHGNSIFRIDTEGTNYEQLVVDAGVSVIMDFHYNEKRIYWVDLERQLLQRVFLNGSRQERVCNIEKNVSGMAINWINEEVIWSNQQEGIITVTDMKGNNSHILLSALKYPANVAVDPVERFIFWSSEVAGSLYRADLDGVGVKALLETSEKITAVSLDVLDKRLFWIQYNREGSNSLICSCDYDGGSVHISKHPTQHNLFAMSLFGDRIFYSTWKMKTIWIANKHTGKDMVRINLHSSFVPLGELKVVHPLAQPKAEDDTWEPEQKLCKLRKGNCSSTVCGQDLQSHLCMCAEGYALSRDRKYCEDVNECAFWNHGCTLGCKNTPGSYYCTCPVGFVLLPDGKRCHQLVSCPRNVSECSHDCVLTSEGPLCFCPEGSVLERDGKTCSGCSSPDNGGCSQLCVPLSPVSWECDCFPGYDLQLDEKSCAASGPQPFLLFANSQDIRHMHFDGTDYGTLLSQQMGMVYALDHDPVENKIYFAHTALKWIERANMDGSQRERLIEEGVDVPEGLAVDWIGRRFYWTDRGKSLIGRSDLNGKRSKIITKENISQPRGIAVHPMAKRLFWTDTGINPRIESSSLQGLGRLVIASSDLIWPSGITIDFLTDKLYWCDAKQSVIEMANLDGSKRRRLTQNDVGHPFAVAVFEDYVWFSDWAMPSVMRVNKRTGKDRVRLQGSMLKPSSLVVVHPLAKPGADPCLYQNGGCEHICKKRLGTAWCSCREGFMKASDGKTCLALDGHQLLAGGEVDLKNQVTPLDILSKTRVSEDNITESQHMLVAEIMVSDQDDCAPVGCSMYARCISEGEDATCQCLKGFAGDGKLCSDIDECEMGVPVCPPASSKCINTEGGYVCRCSEGYQGDGIHCLDIDECQLGEHSCGENASCTNTEGGYTCMCAGRLSEPGLICPDSTPPPHLREDDHHYSVRNSDSECPLSHDGYCLHDGVCMYIEALDKYACNCVVGYIGERCQYRDLKWWELRHAGHGQQQKVIVVAVCVVVLVMLLLLSLWGAHYYRTQKLLSKNPKNPYEESSRDVRSRRPADTEDGMSSCPQPWFVVIKEHQDLKNGGQPVAGEDGQAADGSMQPTSWRQEPQLCGMGTEQGCWIPVSSDKGSCPQVMERSFHMPSYGTQTLEGGVEKPHSLLSANPLWQQRALDPPHQMELTQ", "modifications": "Pro-epidermal growth factor", "notes": "epidermal growth factor injected to the side channels to stimulate chemoinvasion"}}, "system": "SUM-159 breast cancer cells", "experiment": "Chemoinvasion of breast cancer cells in the microfluidic platform", "assay_type": "cell-based", "experimental": "We encapsulated highly invasive SUM-159 breast cancer cells within our platform. Cells were encapsulated in a mixture of Collagen:Matrigel at a ratio of 1:1 (final collagen density is 1 mg/mL) and the solution was injected into the tumor region while cell-free collagen type I (2 mg/mL) was injected into the stromal region. In one platform, 50 ng/mL of epidermal growth factor (EGF) was injected to the side channels to stimulate chemoinvasion, while in a control platform, no EGF was injected. We observed the migration of the cells throughout the stromal region over the course of four days in both conditions.\nThere was noticeable collagen deformation showing that the cells are actively sensing their biophysical environment and reacting to it. […] Cells without EGF stimulation did invade as well but not by the same distance.", "key": {"[1]": {"settings": "50 ng/mL EGF vs -EGF control, day 4"}}, "data": [{"molecule": "B1", "values": [{"measurement": "invasion distance into the stromal region", "setting": "50 ng/mL EGF in side channels vs -EGF control, by day 3", "value": "invaded further"}, {"measurement": "cell count as a function of migration distance", "setting": "[1]", "value": "more cells had migrated a greater distance"}, {"measurement": "number of cells in the media channels", "setting": "[1]", "value": "a higher number of cells were seen in the channels"}]}]}
